Reference: doi:10.1101/144360 (bioRxiv, 2017)
AGT = not defined here

Target: T1, 6xHIS-SH3_(Boi1) (S. cerevisiae, UniProt P38041 13-77)
T1 sequence: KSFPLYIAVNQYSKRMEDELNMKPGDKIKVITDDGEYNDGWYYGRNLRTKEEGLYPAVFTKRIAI
Assay: SPR

Binder: 6xHis-SVSSKGPSNSLNLSTADLSLN-{AGT} (reading uncertain; also: AGT tag covalently labeled with SNAP-Biotin) [6xHis-Exo84_(121-141)-AGT]
- Kd: ~1000 nM
